The text below walks through data of paper PMC11511902.

Like-named read-outs stand apart in the source and are kept apart here.

Common to all, as to assay: SPR
In series [1] the target is T1, His6-gp1 (Bacillus thuringiensis phage GIL01 …, UniProt Q7WSG8 1-58).
T1 sequence: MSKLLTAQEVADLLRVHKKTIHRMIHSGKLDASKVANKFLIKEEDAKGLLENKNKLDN

For series [2], the target named is T1, His6-gp1. The source holds these as a separate data set.
Series [3] has as its target T1, His6-gp1. The source holds these as a separate data set.

B1: SPR_wt 81-bp P2 fragment (dsDNA)
DNA 1: GTTACTACTCGAGCGAACATTTGCATTACTGGTAACTTTCGGGTAATATTGGTAGCAGAGAGGGACAAACGGGACAAATCGAGACACGATACATAC
DNA 2: GTATGTATCGTGTCTCGATTTGTCCCGTTTGTCCCTCTCTGCTACCAATATTACCCGAAAGTTACCAGTAATGCAAATGTT
DNA 3: CGCTCGAGTAGTAAC
With B1, in the series with His6-gp1 [1], the binding result is “binds”.

B2: SPR_252Δ262 (cp33.14) 81-bp fragment (dsDNA)
DNA 1: GTTACTACTCGAGCGTGTAATATAAAAACATTTGCATTACTGGTAATATTGGTAGCAGAGAGGGACAAACGGGACAAATCGAGACACGATACATAC
DNA 2: GTATGTATCGTGTCTCGATTTGTCCCGTTTGTCCCTCTCTGCTACCAATATTACCAGTAATGCAAATGTTTTTATATTACA
DNA 3: CGCTCGAGTAGTAAC
Consider B2, for which the binding result with His6-gp1 [2] is on record as “binds”.

B3: SPR_172Δ355 (cp33.1) 81-bp fragment (dsDNA)
DNA 1: GTTACTACTCGAGCGAAAAGGAAAAGTGTGACAAGATATTCCAAGGGTGCTATAATAGGAAATGAGTAAACTACTGACTGCGCAAGAGGTTGCAGA
DNA 2: TCTGCAACCTCTTGCGCAGTCAGTAGTTTACTCATTTCCTATTATAGCACCCTTGGAATATCTTGTCACACTTTTCCTTTT
DNA 3: CGCTCGAGTAGTAAC
As for B3, in the series with His6-gp1 [3], the binding result was “no binding”.
